Tests used:
[1] = target: Sox2 N-terminal domain and DBD (N-DBD); test: NMR; residue Ala 287; details: domain or fragment; Limits are not printed. They are inferred from the C-IDR label position 120, the +9/-9 charge count, and 180 observable HSQC peaks (198 residues minus 17 Pro and the N-terminal residue). The NMR sample was 15N-labelled or unlabelled. The His6-SUMO tag was removed. The smFRET version carries dyes at 120 and 265. Limits are not printed. They are inferred from 109 expected HSQC peaks (119 residues m); modification not given
[2] = target: Sox2 N-terminal domain and DBD (N-DBD); test: NMR; residue Ser 290; details: domain or fragment; Limits are not printed. They are inferred from the C-IDR label position 120, the +9/-9 charge count, and 180 observable HSQC peaks (198 residues minus 17 Pro and the N-terminal residue). The NMR sample was 15N-labelled or unlabelled. The His6-SUMO tag was removed. The smFRET version carries dyes at 120 and 265. Limits are not printed. They are inferred from 109 expected HSQC peaks (119 residues m); modification not given

Sequence of Sox2 N-terminal domain and DBD (N-DBD) (chain, as listed by the source): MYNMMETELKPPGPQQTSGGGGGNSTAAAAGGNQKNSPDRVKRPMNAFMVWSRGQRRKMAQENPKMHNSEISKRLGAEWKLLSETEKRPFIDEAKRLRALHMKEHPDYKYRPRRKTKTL

B1: Sox2 C-terminal intrinsically disordered region (C-IDR) (protein)
chain: MKKDKYTLPGGLLAPGGNSMASGVGVGAGLGAGVNQRMDSYAHMNGWSNGSYSMMQDQLGYPQHPGLNAHGAAQMQPMHRYDVSALQYNSMTSSQTYMNGSPTYSMSYSQQGTPGMALGSMGSVVKSEASSSPPVVTSSSHSRAPCQAGDLRDMISMYLPGAEVPEPAAPSRLHMSQHYQSGPVPGTAINGTLPLSHM
Kd [1]: 93 µM | Kd [2]: 74 µM

From paper PMC10873366
